From paper PMC5736220, “Using thermal scanning assays to test protein-protein interactions of inner-ear cadherins” (PLoS ONE, 2017)

Columns and labels:
Details in all cases: both partners purified
[1] = target: T1, protocadherin-15 EC1+2, wild type, His-tagged (mouse, UniProt Q99PJ1 27-259); test: SEC; analytical, Superdex 75 3.2/3.0, SEC buffer, 4°C, 100 μL loop, 0.05 mL/min; complex read from a decrease in elution volume of the mixture
T1 construct: Protocadherin-15 (PCDH15), mouse, N-terminal fragment EC1+2; pET21a, NdeI/XhoI; predicted molecular weight 27.5 kDa; Held on the Ni-NTA chip by its His tag in SPR; also called pcdh15; pcdh15(WT); not shown: His6, C-terminal, kept

[2] = target: T1, protocadherin-15 EC1+2, wild type, …; test: SPR; Biacore T100, Ni-NTA chip, 6xHis pcdh15 immobilised, tag-free cdh23 0.25 to 30 μM injected, 25°C, SEC buffer; KD from binding isotherms (Biacore T100 evaluation software)
[3] = target: T2, protocadherin-15 EC1+2 Q165L, His-tagged (mouse, UniProt Q99PJ1 27-259, Q165L); test: as above
T2 construct: Protocadherin-15 (PCDH15), mouse, N-terminal fragment EC1+2; Mutant of m12 made with QuikChange; Held on the Ni-NTA chip by its His tag in SPR; also called pcdh15(Q165L); not shown: His6, C-terminal, kept

[4] = target: T3, protocadherin-15 EC1+2 G16D, His-tagged (mouse, UniProt Q99PJ1 27-259, G16D); test: as above
T3 construct: Protocadherin-15 (PCDH15), mouse, N-terminal fragment EC1+2; Mutant of m12 made with QuikChange; Held on the Ni-NTA chip by its His tag in SPR; also called pcdh15(G16D); not shown: His6, C-terminal, kept

[5] = target: T1, protocadherin-15 EC1+2, wild type, …; test: SPR; Biacore T100, Ni-NTA chip, 6xHis pcdh15 immobilised, tag-free cdh23 0.25 to 30 μM injected, 25°C, SEC buffer; global kinetic fit with EVILFIT (distribution model)
[6] = target: T2, protocadherin-15 EC1+2 Q165L, His-tagged; test: as above
[7] = target: T3, protocadherin-15 EC1+2 G16D, His-tagged; test: as above

B1: cadherin-23 EC1+2 T190W, His-tagged (domain or fragment, mouse)
chain: QVNRLPFFTNHFFDTYLLISEDTPVGSSVTQLLARDMDNDPLVFGVSGEEASRFFAVEPDTGVVWLRQPLDRETKSEFTVEFSVSDHQGVITRKVNIQVGDVNDNAPTFHNQPYSVRIPENTPVGTPIFIVNATDPDLGAGGSVLYSFQPPSPFFAIDSARGIVTVIQELDYEVTQAYQLTVNATDQDKWRPLSTLANLAIIITD
notes: Cadherin-23 (CDH23), mouse, N-terminal fragment EC1+2; Mutant of m1 made with QuikChange; also called cdh23(T190W)
**Q.** Does B1 bind [1]?
**A.** binds

B2: cadherin-23 EC1+2 (residues 1-205), wild type, tagless (domain or fragment, mouse)
chain: QVNRLPFFTNHFFDTYLLISEDTPVGSSVTQLLARDMDNDPLVFGVSGEEASRFFAVEPDTGVVWLRQPLDRETKSEFTVEFSVSDHQGVITRKVNIQVGDVNDNAPTFHNQPYSVRIPENTPVGTPIFIVNATDPDLGAGGSVLYSFQPPSPFFAIDSARGIVTVIQELDYEVTQAYQLTVNATDQDKTRPLSTLANLAIIITDA
notes: an Ala residue included between CDH23 EC2 and the intein tag to improve cleavage efficiency; pTXB1, NdeI/SapI; That the added Ala stays on the C-terminus after thiol-induced cleavage, and that a start Met precedes residue 1, are surmised; also called tag-free cdh23; tagless cdh23
**Q.** Which results are given for B2?
**A.** Kd [2]: 1380 ± 360 nM; Kd [3]: 2600 nM; Kd [4]: 1110 ± 70 nM; Kd [5]: 3720 ± 1650 nM; koff [5]: 0.2 ± 0.04 s⁻¹; kon [5]: 61900 M⁻¹ s⁻¹; Kd [6]: 3940 ± 1110 nM; koff [6]: 0.22 ± 0.04 s⁻¹; kon [6]: 55900 M⁻¹ s⁻¹; Kd [7]: 2000 ± 990 nM; koff [7]: 0.17 ± 0.01 s⁻¹; kon [7]: 94800 M⁻¹ s⁻¹
